Test results reported in the supplement of paper PMC10567573.

B1: FAM189A2 (parent)
chain: PRCDLVDLGEGKICFCCEEFQPAK

Variants of: B1
Assay: protein stability index of a GFP-peptide fusion (GPS, HEK-293T) (PSI 1-6); higher = more stable
Details: c terminus: a fixed tail appended
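Further: lentivirally expressed fusions sorted by FACS into six bins by GFP to DsRed ratio, PSI derived from sequencing read proportions per bin multiplied by bin number.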

Protein stability index: each site, then its substitutions
I13: Q 3.27; S 3.57; L 2.72; N 3.78; P 3.41; H 3.89; T 3.1; M 4.02; R 3.44; F 3.02; Y 2.3; K 3.71; W 2.11; V 2.86; G 3.55
E19: I 1.55; P 3.04; C 3.96; L 2; D 2.97; G 2.71; A 2.51; N 3.21; H 2.94; V 1.65; Y 2.03; S 2.26; K 2.09; R 2.21; F 1.78; Q 3.05; W 2.25; T 3.13
C14: V 3.06; I 2.39; K 3.94; T 3.47; L 3.15; G 3.56; Q 3.79; P 3.94; W 2.51; R 3.51; H 3.48; M 2.87; A 3.62; F 2.16; D 4.07; E 4.24; S 3.3; Y 2.46; N 4.56
F15: K 4.07; Y 2.81; M 2.8; L 3.39; C 3.86; Q 4.13; S 4.47; T 4.07; R 3.33; P 3.55; W 3.04; V 3.43; N 4.66; G 3.79; E 4.19; H 3.77; I 2.38; D 4.74; A 3.94
E18: I 2.63; C 2.62; V 2.53; R 2.28; G 2.64; T 2.45; Q 2.64; N 2.78; K 2.77; M 2.07; L 1.71; D 2.56; W 2.01; A 3.34; P 2.98; H 2.85; F 2.29; S 2.55; Y 2.07
F20: Y 3.1; A 3.32; Q 2.59; I 3.6; R 4.13; T 3.97; N 3.86; C 3.15; G 3.59; V 3.75; P 4; K 3.89; S 3.89; E 4.91; W 2.4; L 2.42; D 4.05; H 4.34; M 3.16
Q21: S 2.65; V 2.66; E 3.87; Y 2.33; T 3.55; H 3.1; N 3.14; A 3.44; M 2.24; G 3.07; I 2.68; W 2.48; F 2.24; D 3.61; R 2.44; P 2.86; L 2.65; C 4.17; K 2.79
C16: Y 2.22; P 4.24; A 3.45; I 2.09; W 2.1; M 3.07; S 3.28; E 3.64; G 3.44; L 2.71; F 2.66; R 3.13; Q 3.89; N 3.93; T 3.05; H 4.23; D 3.88; K 3.76; V 2.85
C17: Q 3.12; D 4.29; L 2.15; H 3.11; R 3.28; Y 2.66; A 3.34; S 3.5; E 4.67; M 2.66; G 3.92; I 2.05; F 2.37; P 3.27; T 4.05; N 3.96; K 3.64; W 2.51
P22: A 3.31; C 3.51
